The target of test [1] is AP2M1 (mu subunit of the AP2 complex) (UniProt Q96CW1). Put plainly: competitive binding with synthetic peptides, in vitro. To be noted: reference: unphosphorylated peptide; sites Y8.
Test [2] concerns the target AP1M1 (mu subunit of the AP1 complex) (UniProt Q9BXS5). The test is described as above. To be noted: reference: unphosphorylated peptide; sites Y8.

Turning to “mATG9 1-18 (from UniProt Q7Z3C6) pY8 peptide”, the “binding against the reference” value in test [1] and in test [2] was “stronger” each time.

These data come from PMC5339848.
